From publication PMC3306459 (Journal of Inorganic Biochemistry, 2011)
Positions count from the first letter of the chain named. Names may count otherwise.

T1: G450A iNOS full length protein (mouse, UniProt P29477 1-1144, G450A)
T1 sequence (looked up): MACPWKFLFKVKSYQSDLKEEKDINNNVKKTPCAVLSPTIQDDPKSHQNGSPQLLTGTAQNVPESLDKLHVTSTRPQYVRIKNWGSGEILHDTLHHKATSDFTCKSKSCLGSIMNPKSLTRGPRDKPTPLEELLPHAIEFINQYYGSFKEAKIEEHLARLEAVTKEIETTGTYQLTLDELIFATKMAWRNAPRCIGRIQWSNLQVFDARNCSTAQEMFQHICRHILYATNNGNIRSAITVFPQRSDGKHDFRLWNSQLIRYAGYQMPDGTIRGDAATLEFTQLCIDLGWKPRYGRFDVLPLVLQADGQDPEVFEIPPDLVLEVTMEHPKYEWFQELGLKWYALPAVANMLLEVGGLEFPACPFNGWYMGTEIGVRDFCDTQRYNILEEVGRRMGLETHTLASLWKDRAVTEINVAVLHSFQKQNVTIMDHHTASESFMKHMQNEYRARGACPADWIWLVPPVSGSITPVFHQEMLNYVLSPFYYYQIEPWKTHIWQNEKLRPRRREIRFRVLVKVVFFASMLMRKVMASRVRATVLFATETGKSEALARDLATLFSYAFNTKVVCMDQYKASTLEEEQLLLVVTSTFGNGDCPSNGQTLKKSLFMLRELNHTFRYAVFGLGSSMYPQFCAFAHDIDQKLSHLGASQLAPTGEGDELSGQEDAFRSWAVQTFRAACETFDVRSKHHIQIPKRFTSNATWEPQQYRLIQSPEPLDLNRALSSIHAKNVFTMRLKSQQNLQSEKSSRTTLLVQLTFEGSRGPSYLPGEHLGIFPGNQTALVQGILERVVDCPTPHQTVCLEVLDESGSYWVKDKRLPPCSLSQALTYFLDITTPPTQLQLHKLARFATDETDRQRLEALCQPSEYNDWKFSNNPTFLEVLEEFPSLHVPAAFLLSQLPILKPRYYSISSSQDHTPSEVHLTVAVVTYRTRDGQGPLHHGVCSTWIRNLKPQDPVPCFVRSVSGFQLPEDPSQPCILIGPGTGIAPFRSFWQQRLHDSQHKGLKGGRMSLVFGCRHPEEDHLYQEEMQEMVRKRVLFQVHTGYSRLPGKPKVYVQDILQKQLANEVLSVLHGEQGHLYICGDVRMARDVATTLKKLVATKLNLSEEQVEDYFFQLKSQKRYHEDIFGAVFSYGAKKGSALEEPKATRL

B1: wild type Δ65iNOSoxy domain (oxygenase domain of inducible nitric oxide synthase, amino acid 66–498) (domain or fragment, mouse, UniProt P29477 66-498, looked up)
chain: LDKLHVTSTRPQYVRIKNWGSGEILHDTLHHKATSDFTCKSKSCLGSIMNPKSLTRGPRDKPTPLEELLPHAIEFINQYYGSFKEAKIEEHLARLEAVTKEIETTGTYQLTLDELIFATKMAWRNAPRCIGRIQWSNLQVFDARNCSTAQEMFQHICRHILYATNNGNIRSAITVFPQRSDGKHDFRLWNSQLIRYAGYQMPDGTIRGDAATLEFTQLCIDLGWKPRYGRFDVLPLVLQADGQDPEVFEIPPDLVLEVTMEHPKYEWFQELGLKWYALPAVANMLLEVGGLEFPACPFNGWYMGTEIGVRDFCDTQRYNILEEVGRRMGLETHTLASLWKDRAVTEINVAVLHSFQKQNVTIMDHHTASESFMKHMQNEYRARGGCPADWIWLVPPVSGSITPVFHQEMLNYVLSPFYYYQIEPWKTHIWQNE
B2: R375K Δ65iNOSoxy (amino acid 66–498) (domain or fragment, mouse, UniProt P29477 66-498, looked up)
chain: B1 chain with R310K
B3: R375N Δ65iNOSoxy (amino acid 66–498) (domain or fragment, mouse, UniProt P29477 66-498, looked up)
chain: B1 chain with R310N
B4: R375D Δ65iNOSoxy (amino acid 66–498) (domain or fragment, mouse, UniProt P29477 66-498, looked up)
chain: B1 chain with R310D

How the values were obtained:
[1] = target: T1, G450A iNOS full length protein; experiment: cell-based or functional assay
SEC = target: the molecule itself; experiment: SEC

| Binder | NO2^- production of the heterodimer, Griess assay [1] [µM] | NO synthesis (min^-1) of the heterodimer, oxyhemoglobin assay [1] [min⁻¹] | dimer content (SEC) [%] |
| --- | --- | --- | --- |
| B1 | 30.3 | 51.8 | – |
| B2 | 7.8 | 17.6 | 100 |
| B3 | 6.3 | 8.6 | 38 |
| B4 | 1.8 | 1.7 | 30 |
